For test [1], the target named is T1, human MerTK (human, UniProt Q12866 26-499).
T1 construct: also called HuMER
T1 sequence: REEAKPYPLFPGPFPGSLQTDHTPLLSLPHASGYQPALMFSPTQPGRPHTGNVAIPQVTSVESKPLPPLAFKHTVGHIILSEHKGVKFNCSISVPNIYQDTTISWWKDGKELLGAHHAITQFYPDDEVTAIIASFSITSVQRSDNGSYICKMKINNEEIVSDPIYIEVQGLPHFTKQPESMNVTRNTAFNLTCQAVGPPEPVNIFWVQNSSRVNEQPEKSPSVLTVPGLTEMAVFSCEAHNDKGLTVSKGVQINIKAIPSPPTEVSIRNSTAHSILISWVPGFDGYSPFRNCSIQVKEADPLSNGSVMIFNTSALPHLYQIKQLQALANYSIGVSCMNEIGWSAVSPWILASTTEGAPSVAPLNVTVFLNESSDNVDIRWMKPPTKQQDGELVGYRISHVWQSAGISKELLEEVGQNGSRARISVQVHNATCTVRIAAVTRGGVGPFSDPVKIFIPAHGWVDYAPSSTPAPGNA
As to the kind of experiment: SPR BIAcore T200, Ab captured, 25C. On the procedure: (§1) All binding affinity determinations were obtained using Surface Plasmon Resonance (SPR) measurements from a BIAcore™-T200 instrument. Briefly, each rabbit or humanized antibody was captured to achieve approximately 100 RU (Response Units). Then, 3-fold serial dilutions of MerTK from various species (0.4 nM to 100 nM) diluted in HBS-EP buffer (0.01M HEPES pH 7.4, 0.15M NaCl, 3 mM EDTA and 0.05% v/v surfactant P20) was injected into the BIAcore™-T200 instrument at 25° C. or 37° C. with a flow rate of 30 μl/min. Association rates (kₒₙ) and dissociation rates (koff) were calculated using a simple one-to-one Langmuir binding model (BIAcore T200 evaluation software version 2.0). The equilibrium dissociation constant (KD) was calculated as the ratio koff/kₒₙ.
Background: In SPR one partner is held on a chip, and binding of the other changes the refractive index at the surface.

The target in test [2] is T2, mouse MerTK (mouse, UniProt Q60805 23-496).
T2 construct: also called MuMER
T2 sequence (looked up): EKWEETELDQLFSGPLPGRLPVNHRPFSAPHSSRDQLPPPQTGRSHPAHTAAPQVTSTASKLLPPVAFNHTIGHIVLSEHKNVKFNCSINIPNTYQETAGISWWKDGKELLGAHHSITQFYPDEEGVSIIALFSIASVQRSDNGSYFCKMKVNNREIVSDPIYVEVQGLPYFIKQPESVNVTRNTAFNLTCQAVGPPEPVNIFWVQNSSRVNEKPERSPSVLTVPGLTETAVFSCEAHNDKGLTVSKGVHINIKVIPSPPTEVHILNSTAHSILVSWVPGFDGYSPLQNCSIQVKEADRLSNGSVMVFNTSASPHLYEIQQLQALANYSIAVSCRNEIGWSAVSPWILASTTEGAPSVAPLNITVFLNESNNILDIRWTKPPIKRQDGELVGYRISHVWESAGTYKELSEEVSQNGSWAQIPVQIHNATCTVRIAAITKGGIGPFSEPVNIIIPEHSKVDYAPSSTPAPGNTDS
As to the kind of experiment: SPR BIAcore T200, Ab captured, 25C. On the procedure:
as §1

Test [3] has as its target T3, cynomolgus monkey MerTK (cynomolgus monkey, UniProt A0A2K5V1H9 32-505).
T3 construct: Soluble analyte in SPR; also called Cyno MerTK
T3 sequence: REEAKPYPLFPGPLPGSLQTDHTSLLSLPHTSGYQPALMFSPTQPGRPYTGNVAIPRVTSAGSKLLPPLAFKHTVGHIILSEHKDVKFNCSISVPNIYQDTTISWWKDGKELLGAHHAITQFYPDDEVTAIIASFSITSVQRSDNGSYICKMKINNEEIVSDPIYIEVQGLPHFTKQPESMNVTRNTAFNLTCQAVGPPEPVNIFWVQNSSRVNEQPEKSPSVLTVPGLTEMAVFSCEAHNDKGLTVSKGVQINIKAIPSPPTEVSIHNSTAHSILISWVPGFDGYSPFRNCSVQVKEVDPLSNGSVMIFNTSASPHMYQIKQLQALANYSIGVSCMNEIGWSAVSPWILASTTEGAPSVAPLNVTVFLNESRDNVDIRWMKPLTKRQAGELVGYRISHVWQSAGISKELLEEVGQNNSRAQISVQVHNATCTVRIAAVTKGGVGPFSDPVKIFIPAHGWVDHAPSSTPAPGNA
As to the kind of experiment: SPR BIAcore T200, Ab captured, 25C. On the procedure: as §1

For the next test, the target named is T4, HuMER (R26-A499) (human, UniProt Q12866 26-499).
T4 construct: Extracellular domain with both Ig-like and both fibronectin-like domains; also called human MerTK extracellular domain
T4 sequence: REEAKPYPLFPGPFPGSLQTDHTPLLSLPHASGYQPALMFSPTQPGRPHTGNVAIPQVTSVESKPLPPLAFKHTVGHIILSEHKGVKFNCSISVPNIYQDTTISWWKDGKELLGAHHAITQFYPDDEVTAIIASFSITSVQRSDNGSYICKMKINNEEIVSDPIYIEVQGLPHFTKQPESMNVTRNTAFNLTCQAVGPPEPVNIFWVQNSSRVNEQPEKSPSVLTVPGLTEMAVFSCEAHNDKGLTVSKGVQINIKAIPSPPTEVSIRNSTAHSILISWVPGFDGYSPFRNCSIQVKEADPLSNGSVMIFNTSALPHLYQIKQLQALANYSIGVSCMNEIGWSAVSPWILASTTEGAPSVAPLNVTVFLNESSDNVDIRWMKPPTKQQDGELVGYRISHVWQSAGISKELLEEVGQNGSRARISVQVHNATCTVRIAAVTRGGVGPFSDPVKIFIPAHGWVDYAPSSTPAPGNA
As to the kind of experiment: SPR BIAcore T200, Ab captured, 25C. On the procedure: (§2) Binding affinity determinations were obtained using Surface Plasmon Resonance (SRP) measurements from a BIAcore™-T200 instrument. Briefly, each rabbit antibody was captured to achieve approximately 100 RU (Response Units). Then, 3-fold serial dilutions of the various MerTK domains (0.4 nM to 100 nM) diluted in HBS-EP buffer (0.01M HEPES pH 7.4, 0.15M NaCl, 3 mM EDTA and 0.05% v/v surfactant P20) was injected into the BIAcore™-T200 instrument at 25° C. or 37° C. with a flow rate of 30 μl/min. Association rates (kₒₙ) and dissociation rates (koff) were calculated using a simple one-to-one Langmuir binding model (BIAcore T200 evaluation software version 2.0). The equilibrium dissociation constant (KD) was calculated as the ratio koff/kₒₙ.
(§3) Antibody epitope determination was assessed by BIAcore analysis for rabbit antibodies binding against both the human and mouse MerTK extracellular domain (HuMER R26-A499 and MuMER E23-S496), Ig1&2 domain, Ig1-only domain, and Ig2-only domain (TABLE 18). Human MerTK and its domains are shown in light gray, while mouse MerTK and its domains are shown in dark gray.

Another test concerns the target T5, MuMER (E23-S496) (mouse, UniProt Q60805 23-496).
T5 construct: range 23-496; also called mouse MerTK extracellular domain
T5 sequence (looked up): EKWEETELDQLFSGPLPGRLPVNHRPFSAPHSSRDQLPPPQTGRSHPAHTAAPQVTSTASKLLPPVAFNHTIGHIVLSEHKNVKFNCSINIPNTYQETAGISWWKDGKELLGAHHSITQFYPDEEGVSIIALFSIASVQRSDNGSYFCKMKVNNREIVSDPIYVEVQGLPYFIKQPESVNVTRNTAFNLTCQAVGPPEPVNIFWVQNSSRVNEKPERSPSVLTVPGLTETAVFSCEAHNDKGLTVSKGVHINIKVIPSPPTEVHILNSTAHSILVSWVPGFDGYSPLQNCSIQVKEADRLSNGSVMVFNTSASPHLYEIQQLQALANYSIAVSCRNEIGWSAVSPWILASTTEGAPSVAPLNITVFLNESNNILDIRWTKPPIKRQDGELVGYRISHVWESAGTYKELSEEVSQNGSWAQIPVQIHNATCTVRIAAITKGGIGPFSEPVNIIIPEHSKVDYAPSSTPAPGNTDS
Briefly: SPR BIAcore T200, Ab captured, 25C. On the procedure: as §2, §3

The next test has as its target T6, rat MerTK (rat, UniProt P57097 23-496, limits assumed).
T6 construct: Soluble analyte in SPR
T6 sequence (looked up): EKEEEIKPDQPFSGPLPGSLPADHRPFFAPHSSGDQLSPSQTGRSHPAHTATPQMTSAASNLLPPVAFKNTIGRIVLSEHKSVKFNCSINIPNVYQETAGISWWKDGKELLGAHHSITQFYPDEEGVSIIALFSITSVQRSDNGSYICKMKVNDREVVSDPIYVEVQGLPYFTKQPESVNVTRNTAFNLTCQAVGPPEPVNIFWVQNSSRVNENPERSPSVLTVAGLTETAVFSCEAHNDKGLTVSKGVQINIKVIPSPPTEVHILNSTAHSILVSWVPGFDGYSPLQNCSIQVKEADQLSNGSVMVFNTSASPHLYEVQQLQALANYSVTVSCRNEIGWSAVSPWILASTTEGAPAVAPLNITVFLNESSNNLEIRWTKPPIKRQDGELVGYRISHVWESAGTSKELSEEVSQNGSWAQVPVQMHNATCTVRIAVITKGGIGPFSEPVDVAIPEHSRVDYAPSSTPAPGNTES
As to the kind of experiment: SPR BIAcore T200, Ab captured, 37C. The procedure: as §1

For test [4], the target named is T1, human MerTK. As to the kind of experiment: SPR BIAcore T200, Ab captured, 37C. The procedure:
as §1

Test [5] has as its target T2, mouse MerTK. Briefly: SPR BIAcore T200, Ab captured, 37C. The procedure:
as §1

In test [6] the target is T3, cynomolgus monkey MerTK. As to the kind of experiment: SPR BIAcore T200, Ab captured, 37C. On the procedure:
as §1

The values that follow come from US20220135701A1 (Genentech, published 2022).

B1: Rbt9E3.FN (antibody, V domains shown)
VH: QSVEESGGRLVTPGTPLTLTCTVSGFSLSSNAMSWVRQAPGKGLEWIGIISSSGSTYSASWAKGRFTISKTSTTMDLKITSPTTEDTATYFCARVGFFVGYGAYDYGIIHRLDLWGQGTLVTVSS
VL: AAVLTQTPSPVSAAVGGTVSISCQSSKSIYNNNWLSWYQQKPGQPPKLLIYDASDLASGVPSRFEGSGSGTEFTLTISDLECDDAATYYCAGGYSGDSDYAFGGGTEVVVK
notes: Recombinant rabbit monoclonal antibody, Expi293, protein A purified
In general, Kd refers to the constant that tells how readily two partners part at equilibrium. With B1, the Kd in the test with human MerTK [1] stood at 2.6 nM; in the test with mouse MerTK [2], 0.6 nM; with cynomolgus monkey MerTK [3], 2.5 nM; with HuMER (R26-A499), 2.6 nM; with MuMER (E23-S496) it was 0.6 nM; with rat MerTK, 1.7 nM. Further, the Kd in the test with human MerTK [4] was 5.1 nM; in the test with mouse MerTK [5], 0.6 nM; with cynomolgus monkey MerTK [6] it was 2.5 nM.
